Data reported in patent US20250263441A1 (published 2025).

Target: Toll-Like Receptor 2 (TLR2)
Test: SPR

Sequence of Toll-Like Receptor 2 (TLR2) (chain, as listed by the source): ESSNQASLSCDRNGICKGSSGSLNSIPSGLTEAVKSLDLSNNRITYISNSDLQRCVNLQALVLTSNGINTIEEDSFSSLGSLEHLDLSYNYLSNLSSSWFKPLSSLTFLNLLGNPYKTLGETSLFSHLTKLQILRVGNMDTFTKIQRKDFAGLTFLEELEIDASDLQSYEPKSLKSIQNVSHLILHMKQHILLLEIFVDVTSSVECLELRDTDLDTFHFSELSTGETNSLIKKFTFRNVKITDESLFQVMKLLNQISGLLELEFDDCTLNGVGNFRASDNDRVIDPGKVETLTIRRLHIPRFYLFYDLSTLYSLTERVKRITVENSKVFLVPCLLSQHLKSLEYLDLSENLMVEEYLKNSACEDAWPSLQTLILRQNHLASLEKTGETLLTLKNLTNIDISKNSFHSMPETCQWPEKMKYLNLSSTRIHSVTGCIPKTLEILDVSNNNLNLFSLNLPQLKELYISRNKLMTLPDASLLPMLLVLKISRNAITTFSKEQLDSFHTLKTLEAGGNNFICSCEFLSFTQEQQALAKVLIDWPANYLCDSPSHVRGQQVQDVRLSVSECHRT

Row | Kd [nM] | Binder
1 | 373 | GIFKKIAGKLFKWIK (Chemically synthesized variant of AMP5) [AMP5-T7A]
2 | 543 | GIFKKITGKLFKWIK (also called polypeptide 1) [AMP5]
3 | 834 | GIFKKITGKCFKWIK (Chemically synthesized variant of AMP5) [AMP5-L10C]
